From US20210170043A1, “DC-SIGN ANTIBODY CONJUGATES COMPRISING STING AGONISTS” (NOVARTIS AG, priority 2018, published 2021)

T1: human DC-SIGN (Homo sapiens, UniProt Q9NNX6)
T1 construct: expressed in transfected cells
T1 sequence (Q9NNX6 1-404): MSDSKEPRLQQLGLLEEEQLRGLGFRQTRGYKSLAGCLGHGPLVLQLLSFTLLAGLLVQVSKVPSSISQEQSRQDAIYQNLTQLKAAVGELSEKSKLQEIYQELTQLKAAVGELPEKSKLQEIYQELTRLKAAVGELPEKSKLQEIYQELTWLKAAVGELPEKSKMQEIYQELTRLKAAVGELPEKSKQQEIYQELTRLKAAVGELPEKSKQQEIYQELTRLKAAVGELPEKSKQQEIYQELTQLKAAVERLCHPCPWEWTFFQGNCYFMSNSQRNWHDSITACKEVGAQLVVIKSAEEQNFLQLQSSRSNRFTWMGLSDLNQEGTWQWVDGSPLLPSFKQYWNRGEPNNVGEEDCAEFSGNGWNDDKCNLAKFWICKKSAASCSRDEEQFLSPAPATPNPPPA

T2: human L-SIGN (Homo sapiens, UniProt Q9H2X3)
T2 construct: expressed in transfected cells; host or cells: K562, retroviral transduction
T2 sequence (Q9H2X3 1-399): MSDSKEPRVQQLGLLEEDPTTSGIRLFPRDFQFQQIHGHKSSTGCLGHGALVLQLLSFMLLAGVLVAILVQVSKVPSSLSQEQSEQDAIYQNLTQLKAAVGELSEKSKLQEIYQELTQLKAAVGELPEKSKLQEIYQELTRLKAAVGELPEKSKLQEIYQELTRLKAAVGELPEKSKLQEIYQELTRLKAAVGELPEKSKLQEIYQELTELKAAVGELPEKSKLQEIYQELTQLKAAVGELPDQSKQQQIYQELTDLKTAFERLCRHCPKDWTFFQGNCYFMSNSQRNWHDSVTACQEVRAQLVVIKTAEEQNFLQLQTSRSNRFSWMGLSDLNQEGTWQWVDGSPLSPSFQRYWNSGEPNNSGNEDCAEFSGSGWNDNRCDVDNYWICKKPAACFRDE


Legend:
[1] = system: cynomolgus monkey DC-SIGN; assay: FACS binding to CHO cells stably expressing cynomolgus monkey DC-SIGN; settings: FACS MFI, average
Description: (§1) The affinity of various antibodies and ADCs to DC-SIGN and its species orthologues was determined using FACS. Purified IgGs were titrated to determine EC50 values for binding to cell surface expressed DC-SIGN.
(§2) For this purpose, human DC-SIGN expressing or cynomolgus monkey DC-SIGN expressing stable CHO cell lines or K562 expressing DC-SIGN or K562 expressing L-SIGN cell lines were checked for density and viability using VICELL (Beckman Coulter), and washed once with 4° C. PBS. Cells were stained with DAPI (0.5 ug/mL) diluted in PBS for 30 min on ice. Cells were diluted into 4° C. FACS buffer (PBS, 10 mM EDTA, 2% FBS). 125 μl of cells were seeded (10,000 cells/well) into 96-well v-bottom plates (Nunc cat#442587) and centrifuged for 4 min at 1500 rpm at 4° C. Supernatant was removed. Cells were incubated with a serial dilution of each anti-DC-SIGN antibody in FACS buffer at concentrations ranging across several logs with a top concentration no higher than 50 μg/mL for 60 minutes at 4° C. Following incubation, cells were spun down (1500 rpm, 4 min, 4° C.) and washed two times with FACS buffer. A fluorophore-conjugated anti-hFc gamma-AF-647 (Southern Biotechnology) detection antibody was added at 1:400 and samples were incubated for 1 h on ice in the dark. Following incubation, FACS buffer was added, and the cells were spun down (1500 rpm, 4 min, 4° C.) and washed two times with FACS buffer. After the final wash, cells were resuspended in Fixative Buffer (Biolegend, 420801) and 90 μl of FACS buffer followed by readout on the flow cytometry machine (BD LSRFortessa Cell Analyzer; Cat #647177). Geometric Mean fluorescence intensity (MFI) of live, single cells was calculated in Flowjo 10.4.2 and exported into Graphpad Prism7 for EC50 determination.
In a similar experiment the antibodies were tested for cross-reactivity using engineered isogenic matched cell line.

[2] = target: T1, human DC-SIGN; assay: FACS binding to CHO cells stably expressing human DC-SIGN; settings: FACS MFI, average
Description: as §1, §2

[3] = target: T2, human L-SIGN; assay: FACS binding to K562 cells expressing human L-SIGN (selectivity); settings: FACS MFI
Description: as §1, §2
Selectivity was assessed by measuring apparent binding affinities to isogenic cell pairs engineered to overexpress DC-SIGN as well as cell lines expressing DC-SIGN paralog L-SIGN.

[4] = target: T1, human DC-SIGN; assay: FACS binding to K562 cells expressing human DC-SIGN; settings: FACS MFI
Description: as §1, §2

Sequence of cynomolgus monkey DC-SIGN (as listed by the source): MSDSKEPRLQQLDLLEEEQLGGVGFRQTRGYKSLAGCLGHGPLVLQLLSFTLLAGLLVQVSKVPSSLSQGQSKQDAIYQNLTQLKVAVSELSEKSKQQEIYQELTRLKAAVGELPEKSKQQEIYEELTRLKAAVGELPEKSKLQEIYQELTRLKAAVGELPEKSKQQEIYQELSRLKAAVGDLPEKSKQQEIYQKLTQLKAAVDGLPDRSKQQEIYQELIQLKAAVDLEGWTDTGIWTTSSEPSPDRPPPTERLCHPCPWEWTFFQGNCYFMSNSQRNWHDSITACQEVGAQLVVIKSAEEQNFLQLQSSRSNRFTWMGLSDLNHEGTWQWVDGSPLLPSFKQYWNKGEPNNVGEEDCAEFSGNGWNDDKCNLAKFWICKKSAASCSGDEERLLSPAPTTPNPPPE

Row | Molecule | cyno DC-SIGN CHO EC50 (ug/mL) ave. [1] | human DC-SIGN CHO EC50 (ug/mL) ave. [2] | human L-SIGN K562 EC50 [3] | human DC-SIGN K562 EC50 [4]
1 | 1G12 Hz: humanized VL and VH domains of antibody 1G12 (antibody) heavy: QVQLQESGPGLVKPSETLSLTCTVSGFSLTNYGVHWIRQPPGKGLEWIGVIWRGESTDYNAAFMSRVTISKDDSKSQVSLKLSSVTAADTAVYYCARNGGSSGWYFDVWGQGTTVTVSSASTKGPSVFPLAPSSKSTSGGTAALGCLVKDYFPCPVTVSWNSGALTSGVHTFPAVLQSSGLYSLSSVVTVPSSSLGTQTYICNVNHKPSNTKVDKRVEPKSCDKTHTCPPCPAPELLGGPSVFLFPPKPKDTLMISRTPEVTCVVVAVSHEDPEVKFNWYVDGVEVHNAKTKPREEQYNSTYRVVSVLTVLHQDWLNGKEYKCKVSNKALAAPIEKTISKAKGQPREPQVYTLPPSREEMTKNQVSLTCLVKGFYPCDIAVEWESNGQPENNYKTTPPVLDSDGSFFLYSKLTVDKSRWQQGNVFSCSVMHEALHNHYTQKSLSLSPGK light: DIQLTQSPSFLSASVGDRVTITCKASQDVTSAVAWYQQKPGKAPKLLIYWTSTRHTGVPSRFSGSGSGTEYTLTISSLQPEDFATYYCQQHYTTPLTFGQGTKLEIKRTVAAPSVFIFPPSDEQLKSGTASVVCLLNNFYPREAKVQWKVDNALQSGNSQESVTEQDSKDSTYSLSSTLTLSKADYEKHKVYACEVTHQGLSSPVTKSFNRGEC | 0.06 µg/mL | 0.07 µg/mL | >10 µg/mL | 0.021 µg/mL
2 | 2B2 Chimeric: chimeric antibody chains comprising a murine variable region and human constant region (antibody) heavy: EVQLQQSGAELVRPGSSVKMSCKTSGYTFTNYGINWVKQRPGQGLEWIGYIYIGNDYTEYNERFKGKATLTSDTSSSTAHIQLNSLTSEDSAIYFCARLYYGSSLYSYAMDYWGQGTSVTVSSASTKGPSVFPLAPSSKSTSGGTAALGCLVKDYFPCPVTVSWNSGALTSGVHTFPAVLQSSGLYSLSSVVTVPSSSLGTQTYICNVNHKPSNTKVDKRVEPKSCDKTHTCPPCPAPELLGGPSVFLFPPKPKDTLMISRTPEVTCVVVAVSHEDPEVKFNWYVDGVEVHNAKTKPREEQYNSTYRVVSVLTVLHQDWLNGKEYKCKVSNKALAAPIEKTISKAKGQPREPQVYTLPPSREEMTKNQVSLTCLVKGFYPCDIAVEWESNGQPENNYKTTPPVLDSDGSFFLYSKLTVDKSRWQQGNVFSCSVMHEALHNHYTQKSLSLSPGK light: DIVMTQAAPSVSVTPGESVSISCRSSKSLLHSSGNTYLYWFLQRPGQSPQLLISRMSNLASGVPDRFSGSGSGTAFTLRISRVEAEDVGVYYCMQHLEYPYTFGGGTKLELKRTVAAPSVFIFPPSDEQLKSGTASVVCLLNNFYPREAKVQWKVDNALQSGNSQESVTEQDSKDSTYSLSSTLTLSKADYEKHKVYACEVTHQGLSSPVTKSFNRGEC |  |  | >10 µg/mL | 
3 | 952P16 N92Q: optimization of sequences by removal of post-translational modifications, non-preferred sites; substitutions made by site directed mutagenesis (antibody) heavy: QVTLRESGPALVKPTQTLTLTCTFSGFSLSTSGVSVSWIRQPPGKALEWLALIDWDDDKYYSTSLKTRLTISKDTSKNQVVLTMTNMDPVDTATYYCARTPSGSYGRYFDLWGRGTLVTVSSASTKGPSVFPLAPSSKSTSGGTAALGCLVKDYFPCPVTVSWNSGALTSGVHTFPAVLQSSGLYSLSSVVTVPSSSLGTQTYICNVNHKPSNTKVDKRVEPKSCDKTHTCPPCPAPELLGGPSVFLFPPKPKDTLMISRTPEVTCVVVAVSHEDPEVKFNWYVDGVEVHNAKTKPREEQYNSTYRVVSVLTVLHQDWLNGKEYKCKVSNKALAAPIEKTISKAKGQPREPQVYTLPPSREEMTKNQVSLTCLVKGFYPCDIAVEWESNGQPENNYKTTPPVLDSDGSFFLYSKLTVDKSRWQQGNVFSCSVMHEALHNHYTQKSLSLSPGK light: DIQMTQSPSTLSASVGDRVTITCRASQSISNWLAWYQQKPGKAPKLLIYKASSLESGVPSRFSGSGSGTEFTLTISSLQPDDFATYYCQQYQSYWTFGQGTKVEIKRTVAAPSVFIFPPSDEQLKSGTASVVCLLNNFYPREAKVQWKVDNALQSGNSQESVTEQDSKDSTYSLSSTLTLSKADYEKHKVYACEVTHQGLSSPVTKSFNRGEC |  |  | >10 µg/mL | 0.024 µg/mL
4 | 960K03 N92S: optimization of sequences by removal of post-translational modifications, non-preferred sites; substitutions made by site directed mutagenesis (antibody) heavy: QVTLRESGPALVKPTQTLTLTCTFSGFSLSTGGMSVSWIRQPPGKALEWLALIDWDDDKYYSTSLKTRLTISKDTSKNQLVLTMTNMDPVDTATYYCARAHSGSYFDFWGQGTLVTVSSASTKGPSVFPLAPSSKSTSGGTAALGCLVKDYFPCPVTVSWNSGALTSGVHTFPAVLQSSGLYSLSSVVTVPSSSLGTQTYICNVNHKPSNTKVDKRVEPKSCDKTHTCPPCPAPELLGGPSVFLFPPKPKDTLMISRTPEVTCVVVAVSHEDPEVKFNWYVDGVEVHNAKTKPREEQYNSTYRVVSVLTVLHQDWLNGKEYKCKVSNKALAAPIEKTISKAKGQPREPQVYTLPPSREEMTKNQVSLTCLVKGFYPCDIAVEWESNGQPENNYKTTPPVLDSDGSFFLYSKLTVDKSRWQQGNVFSCSVMHEALHNHYTQKSLSLSPGK light: DIQMTQSPSTLSASVGDRVTITCRASQRISNWLAWYQQKPGKAPKLLIYKASSLESGVPSRFSGSGSGTEFTLTISSLQPDDFATYYCQQFSSYWTFGQGTKVEIKRTVAAPSVFIFPPSDEQLKSGTASVVCLLNNFYPREAKVQWKVDNALQSGNSQESVTEQDSKDSTYSLSSTLTLSKADYEKHKVYACEVTHQGLSSPVTKSFNRGEC | 0.08 µg/mL | 0.06 µg/mL |  | 0.049 µg/mL
5 | 952G04 N92Q: optimization of sequences by removal of post-translational modifications, non-preferred sites; substitutions made by site directed mutagenesis (antibody) heavy: QVTLRESGPALVKPTQTLTLTCTFSGFSLSTSGVSVTWIRQPPGKALEWLALIDWDDDKYYSTSLKTRLAISKDTSKNQVVLTMTNMDPVDTATYYCARTPSGSYGRYFDLWGRGTLVTVSSASTKGPSVFPLAPSSKSTSGGTAALGCLVKDYFPCPVTVSWNSGALTSGVHTFPAVLQSSGLYSLSSVVTVPSSSLGTQTYICNVNHKPSNTKVDKRVEPKSCDKTHTCPPCPAPELLGGPSVFLFPPKPKDTLMISRTPEVTCVVVAVSHEDPEVKFNWYVDGVEVHNAKTKPREEQYNSTYRVVSVLTVLHQDWLNGKEYKCKVSNKALAAPIEKTISKAKGQPREPQVYTLPPSREEMTKNQVSLTCLVKGFYPCDIAVEWESNGQPENNYKTTPPVLDSDGSFFLYSKLTVDKSRWQQGNVFSCSVMHEALHNHYTQKSLSLSPGK light: DIQMTQSPSTLSASVGDRVTITCRASQSISTWLAWYQQKPGKAPKLLIYEASSLESGVPSRFSGSGSGTEFTLTISSLQPDDFATYYCQQYQSYWTFGQGTKVEIKRTVAAPSVFIFPPSDEQLKSGTASVVCLLNNFYPREAKVQWKVDNALQSGNSQESVTEQDSKDSTYSLSSTLTLSKADYEKHKVYACEVTHQGLSSPVTKSFNRGEC | 0.02 µg/mL | 0.07 µg/mL | >10 µg/mL | 0.017 µg/mL
